From the supplement of paper PMC5998384

Assays:
HeLa Kyoto [1] = test: thermal stability score vs G1/S (z-score of summed log2 fold changes over temperatures); higher = more thermally stable than in G1/S
HeLa Kyoto [2] = test: solubility change mitosis vs G1/S (difference of NP-40 vs SDS log2 ratios) (log2 ratio difference); higher = more soluble in mitosis
HeLa Kyoto [3] = test: solubility in G1/S (NP-40 vs SDS abundance) (log2 ratio); higher = more soluble; conditions: cell cycle stage: G1/S
HeLa Kyoto [4] = test: melting temperature (median over replicates), in situ; higher = more thermally stable
[5] = cell cycle stage: early G1 (4.5 h after nocodazole release)
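Wherever melting temperature (median over replicates), in situ is given: HeLa Kyoto cells synchronized by double thymidine or nocodazole block, proteins quantified by TMT10plex mass spectrometry, three independent biological replicates.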
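Wherever solubility change mitosis vs G1/S (difference of NP-40 vs SDS log2 ratios) is given: synchronized HeLa Kyoto cells (double thymidine block for G1/S, nocodazole release for mitosis), protein amounts in NP-40 versus SDS lysates quantified by mass spectrometry, three biological replicates.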
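Wherever solubility in G1/S (NP-40 vs SDS abundance) is given: HeLa Kyoto cells arrested at G1/S by double thymidine block, proteins quantified by TMT10plex mass spectrometry in mild NP-40 versus SDS extracts, three biological replicates.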
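Wherever thermal stability score vs G1/S (z-score of summed log2 fold changes over temperatures) is given: synchronized HeLa Kyoto cells, proteins quantified by TMT10plex mass spectrometry, three biological replicates, mitosis taken 0.5 h after nocodazole release, G1/S directly after double thymidine block.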

**Q.** What does the source list for “MALQTLQSSWVTFRKILSHFPEELSLAFVYGSGVYRQAGPSSDQKNAMLDFVFTVDDPVAWHSKNLKKNWSHYSFLKVLGPKIITSIQNNYGAGVYYNSLIMCNGRLIKYGVISTNVLIEDLLNWNNLYIAGRLQKPVKIISVNEDVTLRSALDRNLKSAVTAAFLMLPESFSEEDLFIEIAGLSYSGDFRMVVGEDKTKVLNIVKPNIAHFRELYGSILQENPQVVYKSQQGWLEIDKSPEGQFTQLMTLPKTLQQQINHIMDPPGKNRDVEETLFQVAHDPDCGDVVRLGLSAIVRPSSIRQSTKGIFTAGKSFGNPCVTYLLTEWLPHSWLQCKALYLLGACEMLSFDGHKLGYCSKVQTGITAAEPGGRTMSDHWQCCWKLYCPSEFSETLPVCRVFPSYCFIYQSYRCIGLQKQQHLCSPSSSPSLRQLLPSVLVGYFCCYCHFSKW [TAMM41]”?
**A.** thermal stability score (HeLa Kyoto [1]; [5]): -1.37; thermal stability score (HeLa Kyoto [1]; cell cycle stage: mitosis): -1.38; solubility change mitosis (log2) (HeLa Kyoto [2]): -0.163; solubility in G1/S (log2) (HeLa Kyoto [3]): 0.0094; melting temperature (HeLa Kyoto [4]; cell cycle stage: G1/S): 52.6 °C; melting temperature (HeLa Kyoto [4]; cell cycle stage: mitosis): 52.8 °C

**Q.** With “MALRGVSVRLLSRGPGLHVLRTWVSSAAQTEKGGRTQSQLAKSSRPEFDWQDPLVLEEQLTTDEILIRDTFRTYCQERLMPRILLANRNEVFHREIISEMGELGVLGPTIKGYGCAGVSSVAYGLLARELERVDSGYRSAMSVQSSLVMHPIYAYGSEEQRQKYLPQLAKGELLGCFGLTEPNSGSDPSSMETRAHYNSSNKSYTLNGTKTWITNSPMADLFVVWARCEDGCIRGFLLEKGMRGLSAPRIQGKFSLRASATGMIIMDGVEVPEENVLPGASSLGGPFGCLNNARYGIAWGVLGASEFCLHTARQYALDRMQFGVPLARNQLIQKKLADMLTEITLGLHACLQLGRLKDQDKAAPEMVSLLKRNNCGKALDIARQARDMLGGNGISDEYHVIRHAMNLEAVNTYEGTHDIHALILGRAITGIQAFTASK [GCDH]” as the sequence, how does the thermal stability score (HeLa Kyoto [1]; [5]) read?
**A.** -0.63

**Q.** And the thermal stability score (HeLa Kyoto [1]; cell cycle stage: mitosis)?
**A.** 1.21

**Q.** What about the “solubility change mitosis (log2)” value (HeLa Kyoto [2]) of the same sequence?
**A.** -0.103

**Q.** What about the “solubility in G1/S (log2)” value (HeLa Kyoto [3]) of the same sequence?
**A.** 0.217

**Q.** And the melting temperature (HeLa Kyoto [4]; cell cycle stage: G1/S)?
**A.** 54.2 °C

**Q.** And the melting temperature (HeLa Kyoto [4]; cell cycle stage: mitosis)?
**A.** 54.7 °C

**Q.** How did the thermal stability score (HeLa Kyoto [1]; [5]) turn out when “MALSCTLNRYLLLMAQEHLEFRLPEIKSLLLLFGGQFASSQETYGKSPFWILSIPSEDIARNLMKRTVCAKSIFELWGHGQSPEELYSSLKNYPVEKMVPFLHSDSTYKIKIHTFNKTLTQEEKIKRIDALEFLPFEGKVNLKKPQHVFSVLEDYGLDPNCIPENPHNIYFGRWIADGQRELIESYSVKKRHFIGNTSMDAGLSFIMANHGKVKENDIVFDPFVGTGGLLIACAHFGAYVYGTDIDYNTVHGLGKATRKNQKWRGPDENIRANLRQYGLEKYYLDVLVSDASKPSWRKGTYFDAIITDPPYGIRESTRRTGSQKEIPKGIEKWEKCPESHVPVSLSYHLSDMFLDLLNFAAETLVLGGRLVYWLPVYTPEYTEEMVPWHPCLELVSNCEQKLSSHTSRRLITMEKVKKFENRDQYSHLLSDHFLPYQGHNSFREKYFSGVTKRIAKEEKSTQE [TRMT11]” was run?
**A.** 0.848

**Q.** What about the thermal stability score (HeLa Kyoto [1]; cell cycle stage: mitosis) of the same sequence?
**A.** -0.0136

**Q.** And the “solubility change mitosis (log2)” value (HeLa Kyoto [2])?
**A.** -0.155

**Q.** And the “solubility in G1/S (log2)” value (HeLa Kyoto [3])?
**A.** 0.171

**Q.** What about the melting temperature (HeLa Kyoto [4]; cell cycle stage: G1/S) of the same sequence?
**A.** 54.4 °C

**Q.** What about the melting temperature (HeLa Kyoto [4]; cell cycle stage: mitosis) of the same sequence?
**A.** 53.5 °C

**Q.** For “MAMAPSPSLVQVYTSPAAVAVWEWQDGLGTWHPYSATVCSFIEQQFVQQKGQRFGLGSLAHSIPLGQADPSLAPYIIDLPSWTQFRQDTGTMRAVRRHLFPQHSAPGRGVVWEWLSDDGSWTAYEASVCDYLEQQVARGNQLVDLAPLGYNYTVNYTTHTQTNKTSSFCRSVRRQAGPPYPVTTIIAPPGHTGVACSCHQCLSGSRTGPVSGRYRHSMTNLPAYPVPQHPPHRTASVFGTHQAFAPYNKPSLSGARSAPRLNTTNAWGAAPPSLGSQPLYRSSLSHLGPQHLPPGSSTSGAVSASLPSGPSSSPGSVPATVPMQMPKPSRVQQALAGMTSVLMSAIGLPVCLSRAPQPTSPPASRLASKSHGSVKRLRKMSVKGATPKPEPEPEQVIKNYTEELKVPPDEDCIICMEKLSTASGYSDVTDSKAIGSLAVGHLTKCSHAFHLLCLLAMYCNGNKDGSLQCPSCKTIYGEKTGTQPQGKMEVLRFQMSLPGHEDCGTILIVYSIPHGIQGPEHPNPGKPFTARGFPRQCYLPDNAQGRKVLELLKVAWKRRLIFTVGTSSTTGETDTVVWNEIHHKTEMDRNITGHGYPDPNYLQNVLAELAAQGVTEDCLEQQ [DTX2]”, which thermal stability score (HeLa Kyoto [1]; [5]) is on record?
**A.** 0.67

**Q.** What about the thermal stability score (HeLa Kyoto [1]; cell cycle stage: mitosis) of the same sequence?
**A.** 0.769

**Q.** And the “solubility change mitosis (log2)” value (HeLa Kyoto [2])?
**A.** -0.253

**Q.** And the “solubility in G1/S (log2)” value (HeLa Kyoto [3])?
**A.** 0.0228

**Q.** What about the melting temperature (HeLa Kyoto [4]; cell cycle stage: mitosis) of the same sequence?
**A.** 47.4 °C

**Q.** “MAMQKIFAREILDSRGNPTVEVDLHTAKGRFRAAVPSGASTGIYEALELRDGDKGRYLGKGVLKAVENINNTLGPALLQKKLSVVDQEKVDKFMIELDGTENKSKFGANAILGVSLAVCKAGAAEKGVPLYRHIADLAGNPDLILPVPAFNVINGGSHAGNKLAMQEFMILPVGASSFKEAMRIGAEVYHHLKGVIKAKYGKDATNVGDEGGFAPNILENNEALELLKTAIQAAGYPDKVVIGMDVAASEFYRNGKYDLDFKSPDDPARHITGEKLGELYKSFIKNYPVVSIEDPFDQDDWATWTSFLSGVNIQIVGDDLTVTNPKRIAQAVEKKACNCLLLKVNQIGSVTESIQACKLAQSNGWGVMVSHRSGETEDTFIADLVVGLCTGQIKTGAPCRSERLAKYNQLMRIEEALGDKAIFAGRKFRNPKAK [ENO3]” was tested. Which thermal stability score (HeLa Kyoto [1]; [5]) did it give?
**A.** -0.939

**Q.** And the thermal stability score (HeLa Kyoto [1]; cell cycle stage: mitosis)?
**A.** -1.58

**Q.** What about the “solubility change mitosis (log2)” value (HeLa Kyoto [2]) of the same sequence?
**A.** 0.0137

**Q.** What about the “solubility in G1/S (log2)” value (HeLa Kyoto [3]) of the same sequence?
**A.** 0.117

**Q.** And the melting temperature (HeLa Kyoto [4]; cell cycle stage: G1/S)?
**A.** 55.2 °C

**Q.** What about the melting temperature (HeLa Kyoto [4]; cell cycle stage: mitosis) of the same sequence?
**A.** 56.6 °C

**Q.** “MANEVIKCKAAVAWEAGKPLSIEEIEVAPPKAHEVRIKIIATAVCHTDAYTLSGADPEGCFPVILGHEGAGIVESVGEGVTKLKAGDTVIPLYIPQCGECKFCLNPKTNLCQKIRVTQGKGLMPDGTSRFTCKGKTILHYMGTSTFSEYTVVADISVAKIDPLAPLDKVCLLGCGISTGYGAAVNTAKLEPGSVCAVFGLGGVGLAVIMGCKVAGASRIIGVDINKDKFARAKEFGATECINPQDFSKPIQEVLIEMTDGGVDYSFECIGNVKVMRAALEACHKGWGVSVVVGVAASGEEIATRPFQLVTGRTWKGTAFGGWKSVESVPKLVSEYMSKKIKVDEFVTHNLSFDEINKAFELMHSGKSIRTVVKI [ADH5]” was tested. Which thermal stability score (HeLa Kyoto [1]; [5]) did it give?
**A.** -4.67

**Q.** What about the thermal stability score (HeLa Kyoto [1]; cell cycle stage: mitosis) of the same sequence?
**A.** -2.86

**Q.** And the “solubility change mitosis (log2)” value (HeLa Kyoto [2])?
**A.** -0.171

**Q.** And the “solubility in G1/S (log2)” value (HeLa Kyoto [3])?
**A.** 0.147

**Q.** And the melting temperature (HeLa Kyoto [4]; cell cycle stage: G1/S)?
**A.** 56.8 °C

**Q.** What about the melting temperature (HeLa Kyoto [4]; cell cycle stage: mitosis) of the same sequence?
**A.** 56.7 °C
